Where a chain is given by its changes, count along the chain named. In names and notes the source's numbering stands.
What was measured:
[1] = target: T1, Cre recombinase monomer with Q311R mutation
T1 chain: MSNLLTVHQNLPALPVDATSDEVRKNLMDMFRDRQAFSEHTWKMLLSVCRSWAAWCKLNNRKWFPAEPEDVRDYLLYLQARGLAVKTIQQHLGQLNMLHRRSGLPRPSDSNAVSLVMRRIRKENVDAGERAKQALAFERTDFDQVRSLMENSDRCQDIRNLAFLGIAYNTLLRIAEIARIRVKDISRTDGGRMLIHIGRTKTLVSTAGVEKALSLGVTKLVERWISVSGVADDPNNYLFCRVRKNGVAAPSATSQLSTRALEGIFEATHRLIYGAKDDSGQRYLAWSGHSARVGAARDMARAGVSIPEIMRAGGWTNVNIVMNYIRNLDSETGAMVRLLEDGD

[2] = target: T2, Cre recombinase monomer with R292Q mutation
T2 chain: T1 chain with R292Q, R311Q

[3] = target: T3, Cre recombinase monomer with K201P mutation
T3 chain: T1 chain with K201P, R311Q

[4] = target: T4, Cre recombinase monomer with Y324I mutation
T4 chain: T1 chain with R311Q, Y324I

[5] = target: T5, Cre recombinase monomer with K201Q mutation
T5 chain: T1 chain with K201Q, R311Q

[6] = target: T6, Cre recombinase monomer with R292A mutation
T6 chain: T1 chain with R292A, R311Q

[7] = target: T7, Cre recombinase monomer with W315N mutation
T7 chain: T1 chain with R311Q, W315N

[8] = target: T8, Cre recombinase monomer with Y324S mutation
T8 chain: T1 chain with R311Q, Y324S

[9] = target: T9, Cre recombinase monomer with Y324N mutation
T9 chain: T1 chain with R311Q, Y324N

[10] = target: T10, Cre recombinase monomer with Y324T mutation
T10 chain: T1 chain with R311Q, Y324T

[11] = target: T11, Cre recombinase monomer with Y324R mutation
T11 chain: T1 chain with R311Q, Y324R

B1: Cre recombinase monomer with K201C mutation (protein)
chain: T1 chain with K201C, R311Q
[1]
  Median dimer activity (recombination on loxP): 93%
[2]
  Median dimer activity (recombination on loxP): 52%

B2: Cre recombinase monomer with K201D mutation (protein)
chain: T1 chain with K201D, R311Q
[3]
  Median dimer activity (recombination on loxP): 70%

B3: Cre recombinase monomer with R292E mutation (protein)
chain: T1 chain with R292E, R311Q
[1]
  Median dimer activity (recombination on loxP): 50%
[4]
  Median dimer activity (recombination on loxP): 70%

B4: Cre recombinase monomer with E176W mutation (protein)
chain: T1 chain with E176W, R311Q
[1]
  Median dimer activity (recombination on loxP): 90%
[5]
  Median dimer activity (recombination on loxP): 28%

B5: Cre recombinase monomer with Q133H mutation (protein)
chain: T1 chain with Q133H, R311Q
[6]
  Median dimer activity (recombination on loxP): 48%
[7]
  Median dimer activity (recombination on loxP): 33%
[1]
  Median dimer activity (recombination on loxP): 96%

B6: Cre recombinase monomer with W315E mutation (protein)
chain: T1 chain with R311Q, W315E
[8]
  Median dimer activity (recombination on loxP): 35%

B7: Cre recombinase monomer with W315C mutation (protein)
chain: T1 chain with R311Q, W315C
[9]
  Median dimer activity (recombination on loxP): 38%
[10]
  Median dimer activity (recombination on loxP): 36%
[11]
  Median dimer activity (recombination on loxP): 31%

Source: patent US20230183713A1, “SITE-SPECIFIC RECOMBINASES FOR EFFICIENT AND SPECIFIC GENOME EDITING” (TECHNISCHE UNIVERSITÄt DRESDEN, published 2023)
